Nine molecules from patent US20090048164A1 can be followed below.

Read-outs that look alike come from different tables or passages of the source. Some results are limits rather than exact numbers.

Assay in all cases: competition phage ELISA
For orientation: An ELISA detects its analyte on a solid surface through an enzyme-linked reagent.

The target of assay [1] is Recombinant human Bcl-xL with a 25 amino acid truncation of its C-terminus (human) (UniProt Q07817).
The target in assay [2] is mouse Mcl-1 with truncations of 151 amino acid residues at its N-terminus and 23 residues at its C-terminus (mouse) (UniProt P97287).
Sequence of mouse Mcl-1 with truncations of 151 amino acid residues at its N-terminus and 23 residues at its C-terminus (mouse) (P97287 152-308): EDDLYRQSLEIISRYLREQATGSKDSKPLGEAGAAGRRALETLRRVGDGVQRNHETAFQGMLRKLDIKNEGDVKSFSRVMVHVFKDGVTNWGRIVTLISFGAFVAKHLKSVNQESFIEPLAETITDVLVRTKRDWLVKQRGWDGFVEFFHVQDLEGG
Assay [3] deals with Recombinant human Bcl-xL with a 25 amino acid truncation of its C-terminus (human) (UniProt Q07817). This is another data set of the same source.

Sequence of Recombinant human Bcl-xL with a 25 amino acid truncation of its C-terminus (human) (Q07817 1-208): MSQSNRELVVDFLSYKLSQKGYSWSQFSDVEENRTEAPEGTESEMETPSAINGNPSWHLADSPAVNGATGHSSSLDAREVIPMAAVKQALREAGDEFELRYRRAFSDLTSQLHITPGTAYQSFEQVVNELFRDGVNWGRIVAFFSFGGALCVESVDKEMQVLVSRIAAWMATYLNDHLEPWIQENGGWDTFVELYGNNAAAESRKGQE

A word on the IC50: it is the point on the concentration scale where inhibition reaches its midpoint. Turning to PSSTMGQVGRQLAIIGDDIARRYDSE [Bak BH3 N20A, phage-displayed], in assay [1], the Fold/wt turned out to be 2 fold and the IC50 was determined as 111 nM. Besides, in assay [2], the Fold/wt was 1 fold and the IC50 is 23 nM.
With PSSTMGQVGRQLAIIGDDINRRYDSE [Bak BH3 wild type, phage-displayed], in assay [1], the Fold/wt turned out to be 1 fold and the IC50 was 49 nM. For the same molecule, in assay [2], the Fold/wt turned out to be 1 fold and the IC50 turned out to be 21 nM.
As to PSSTMGQVGRQLAIIGDDINRAYDSE [Bak BH3 R22A, phage-displayed], in assay [1], the Fold/wt came to 1 fold and the IC50 was determined as 37 nM. In assay [2], this molecule displayed a Fold/wt of 1 fold and an IC50 of 16 nM.
In the case of PSSTMGQVGRQLAIIGDDINRRYDAE [Bak BH3 S25A, phage-displayed], in assay [1], the Fold/wt was 1 fold and the IC50 was determined as 31 nM. In addition, in assay [2], the Fold/wt stood at 1 fold and the IC50 stood at 18 nM.
For NLWAAQRYGRELRRMSDEFVDSFKKG [Bad BH3 wild type, phage-displayed], the IC50 in assay [3] amounted to 1 nM. Further, in assay [1], the Fold/wt came to 1 fold and the IC50 was 2 nM.
For the molecule PSSTMGQVGRQLAIIGDDINARYDSE [Bak BH3 R21A, phage-displayed], the Fold/wt was determined as 2 fold in assay [1] and 1 fold in assay [2]. For the same molecule, the results for the concentration for half-maximal inhibition (IC50) in assay [1] and in assay [2] were 87 nM and 17 nM, respectively.
In the same order, the values of PSSTMGQVGRQLAIIGDDINRRYDSA [Bak BH3 E26A, phage-displayed] are 1 fold, less than 1 fold, 29 nM and 10 nM.
For the molecule PSSTMGQVGRQLAIIGDDINRRADSE [Bak BH3 Y23A, phage-displayed], in assay [1], the Fold/wt came to 1 fold and the IC50 was found to be 52 nM. In assay [2], this molecule had a Fold/wt of 6 fold and an IC50 of 117 nM.
For PSSTMGQVGRQLAIIGDDINRRYASE [Bak BH3 D24A, phage-displayed], the Fold/wt in assay [1] was 1 fold; in assay [2] it was less than 1 fold. Further, the half-maximal inhibitory concentration (IC50) in assay [1] was 30 nM; in assay [2], 9 nM.
